We go through 30 sequences from the nanobody polyreactivity screen of Harvey et al. (2022).

A short description of this series: yeast display, Sf9 membrane polyspecificity reagent, FACS + sequencing; frameworks hold sequencing errors. The procedure, abridged:
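Nanobodies came from a synthetic yeast display library in Saccharomyces cerevisiae BJ5465, induced with galactose for 36–48 hours and stained for 1 hour at 4 °C with 10% biotinylated, detergent-solubilized Sf9 membrane reagent. Cells were enriched on streptavidin microbeads and then FACS-sorted, with low and high (top ~1%) gates set on anti-HA fluorescence for expression and streptavidin fluorescence for reagent binding. Each polyreactivity label reflects the gate a clone came from. Genes were amplified by colony PCR, sequenced by MiSeq 2 × 250 and filtered by CDR length.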
Consider “QVQLVESGGGLVQAGGSLRLSCAASGSILYVNAMGWYTQEPGKERELVAAITVSGGSTYYADSVKGRFTISRDNAKNTVYLQMNSLKPEDTAVFYCAAPALGNYFYGYDYCGQGTQVTVSS”, for which the “polyreactivity (PSR sort gate)” value was “low polyreactivity”.

For “QVQLVESGGGLVQAGGSLRLSCAASGSILYVYAMGWYRQAPGKERELVATITGRVVSTNYADSVKGRFTISRDNAKNTVYLQMNSLKPEDTAVYYCAARTRRRRGEYDYWGQGTQVTVSS”, the “polyreactivity (PSR sort gate)” value was “high polyreactivity”.

Regarding “QVQLVESGGGLVQAGGSLRLSCAASGSILYVYAMGWYRQAPGKERELVATITGRVVSTNYADSVKGRLTISRDNAKNTVYLQMNSLKPEDTAVYYCAARTRRRRGEYDYWGQGTQVTVSS”, the “polyreactivity (PSR sort gate)” value was “high polyreactivity”.

Regarding “QVQLVESGGGLVQAGGSLRLSCAASGSINNRNAMGWYIQAPGKERELVAAITRRGGSTYYADSVKGRFTISRDNAKNTVYLQMNSLKPEETAVYYFNAVKGLSSWSYEYWGQGSQVTVSS”, the “polyreactivity (PSR sort gate)” value is “high polyreactivity”.

On to “QVQLVESGGGLVQAGGSLRLSCAASGSIQARYAMGWYRQAPGKERELVASITTSGDSTYYADSVKGRFTISRDNAKNTVYLQMNSLKPEDTAVSYCARRRWGWGYQHFPYYYWGQGTQVTVSS”, for which the “polyreactivity (PSR sort gate)” value is given as “high polyreactivity”.

Regarding “QVQLVESGGGLVQAGGSLRLSCAASGSIQTRNAMGWYRQAPGKERELVAAITGSGGRTYYADSVKGRFTISRDNAKNTVYLQMNSLKPEDTAVYYCATRYGREDYWGQVTQVTVSS”, the “polyreactivity (PSR sort gate)” value was “high polyreactivity”.

With “QVQLVESGGGLVQAGGSLRLSCAASGSIQYYAMGWYRQEPGKERELVAAIRFSGGRTYYADSVKGRFTISRDNAKNTVYLQMNSLKPEETAVYYCAAYRSPRRSGAPSQGKFDYWGQVTQVTVSS”, the “polyreactivity (PSR sort gate)” value is on record as “high polyreactivity”.

Consider “QVQLVESGGGLVQAGGSLRLSCAASGSIRSYAMGWYRQSPGKERELVAAITRSGGSTYYADSVKGRFTISRDNAKNSVYLQMNSLKPEDTAVYYCAAEVRGKSRSTRVSYRYDYWGQGTQVTVSS”, for which the “polyreactivity (PSR sort gate)” value is recorded as “high polyreactivity”.

Turning to “QVQLVESGGGLVQAGGSLRLSCAASGSIRYYVKGWYRQAPGKERELVAGINWSGGSTYYADSVKGRFTISRDNAKNTVYLQMNSLKPEDTAVYYCAARFVGVRDGYYYWGQGTQVTLSS”, the “polyreactivity (PSR sort gate)” value was “high polyreactivity”.

Consider “QVQLVESGGGLVQAGGSLRLSCAASGSISAPNAMGWYRQAPGKERALVATINSGGRTNYADSVKGRFTISRDNAKNTVYFQMNSLKPEDTAVYYCNTVVRGAYTYGDVSKYDYWGHGTQVTVSS”, for which the “polyreactivity (PSR sort gate)” value was “low polyreactivity”.

Consider “QVQLVESGGGLVQAGGSLRLSCAASGSISDSYAMGWYRPAPGKERELVAAITSGDSTYYADSVKGRFTISRDNAKNTVYLQMNSLKPEDTAVYYCAKRVSRVLGYGFTDWSEYDYWGQGTQVTVSS”, for which the “polyreactivity (PSR sort gate)” value is reported as “low polyreactivity”.

Turning to “QVQLVESGGGLVQAGGSLRLSCAASGSISDSYAMGWYRQAPGKERELVAAITSGDSTYYADSVKGRFTISRDNAKNTVYLQMNSLKPEDTAFYYCAKRVSRVRGYGFTDWSEYDYWGQGTQVTVSS”, the “polyreactivity (PSR sort gate)” value is recorded as “low polyreactivity”.

Consider “QVQLVESGGGLVQAGGSLRLSCAASGSISFYYGIGWYRHAPGKERELVAALNNTGSTNYADSVKGRFTISRDNAKNTVYLQMNSLKPEDTAVYYCNAEQWQSSEYGEWSKRDYWGHGTQVTVSS”, for which the “polyreactivity (PSR sort gate)” value is given as “low polyreactivity”.

On to “QVQLVESGGGLVQAGGSLRLSCAASGSISGWYAMGWYRHAPGKERELVADISSIDGSTYYADSVKGRFTISRDNEKNTVYLQMNSLKPEDTSVYYCSADRGFYYEYDYWGQGTQVTVSS”, for which the “polyreactivity (PSR sort gate)” value is given as “low polyreactivity”.

For the sequence “QVQLVESGGGLVQAGGSLRLSCAASGSISGYNAMGWYRQAPGKERELVAVITTDGSTNYADSVKGRFTISRDNAKNTVYLQMNSLKPEDTAVYYCNTDDGWRLLWEYDYWGQGTQVTVSS”, the “polyreactivity (PSR sort gate)” value is given as “low polyreactivity”.

Take “QVQLVESGGGLVQAGGSLRLSCAASGSISGYYAMGWNRQAPGKERELVASIRYTGARTYYADSVKGRFTISRDNAKNTVYLQMNSLKPEDTAVYYCAADVKRDRVWGGDYWGQGTQVTVSS”: the “polyreactivity (PSR sort gate)” value is given as “low polyreactivity”.

As to “QVQLVESGGGLVQAGGSLRLSCAASGSISGYYAMGWSRQAPGKERELVASIRYTGARTYYADSVKGRFTISRDNAKNTVYLQMNSLKPEDTAVYYCNAYTRYPFYFVTSKYDYWGQGTQVTVSS”, the “polyreactivity (PSR sort gate)” value is reported as “low polyreactivity”.

Consider “QVQLVESGGGLVQAGGSLRLSCAASGSISGYYAMGWYRQAPGKERELVASIRYTGARTYYADSVMGRFTISRDTAKNNVYLQMNSLKPEDTAVYYCAADVKRDRVWGGDYWGQGTQVTVSS”, for which the “polyreactivity (PSR sort gate)” value is recorded as “low polyreactivity”.

On to “QVQLVESGGGLVQAGGSLRLSCAASGSISIRNAMGWYRQAPGKERELVAAISRGGSTYYADSVKGRFTISRDNAKNTVYLQMNSLKPEDTAVYYCATDGGRYYRGREYAFKYYYWGQGTQVTVSS”, for which the “polyreactivity (PSR sort gate)” value is “high polyreactivity”.

Consider “QVQLVESGGGLVQAGGSLRLSCAASGSISKINAMGWYRHAPGKERELVAAINTGDSTYYADSVKGRFTISRDNAKNTVYLQMNSLKPEDTAVYYCAAEGAPTGYDYWGQGTQVTVSS”, for which the “polyreactivity (PSR sort gate)” value was “low polyreactivity”.

“QVQLVESGGGLVQAGGSLRLSCAASGSISKINAMGWYRQAPGKERELVAAINTGDSTYYADSVKGRFTISRDNAKNTVYLQMNSLKPEDTAVYYCAAEGSPNGYDYWGQGTQVTVSS”: the “polyreactivity (PSR sort gate)” value is “low polyreactivity”.

Turning to “QVQLVESGGGLVQAGGSLRLSCAASGSISLYAMGWYRQAPGKERELVAAITKSGGSTYYADSVKGRFTISRDNAKNTVYLQMNSLKPEDTAVYYCNRGGGERKYNYWGQGTQVTGSS”, the “polyreactivity (PSR sort gate)” value is given as “high polyreactivity”.

In the case of “QVQLVESGGGLVQAGGSLRLSCAASGSISNYYGMGWYRQAPGKERELVAAITWGGGRTNYADSVKGRFTISRDNAKNTVYLQMNSLKPEDTAVYYCAKVSVTHRYGAGGDYWGQGTQVTVSS”, the “polyreactivity (PSR sort gate)” value is listed as “low polyreactivity”.

For “QVQLVESGGGLVQAGGSLRLSCAASGSISQGNAMGWYRQAPGKERELVAAIRWTSGRTYYADSVKGRFTISRDNAKNTVSLEINSLKPEDPAVYYCAAYYVYYTPTLFDRDYWGQGTQVTVSS”, the “polyreactivity (PSR sort gate)” value is “low polyreactivity”.

As for “QVQLVESGGGLVQAGGSLRLSCAASGSISRYYAMGWYRQAPRKERELVAAISSNGGSTYYADSVKGRFTISRDNAKNSVYLQMYSLKPEDTAVYYCNAFYVGYIRYWTNKLVDYWGQGTQVTVSS”, the “polyreactivity (PSR sort gate)” value is “high polyreactivity”.

As for “QVQLVESGGGLVQAGGSLRLSCAASGSISSFYAMGWYRQAPGKERELVAGITSGGSTNYADSVKGRFTISRDNAKNTVYLQMNSLKPEDTAVDYCAAVYKGAGTHFDVFVKEFDYWGQGTQVTVSS”, the “polyreactivity (PSR sort gate)” value was “low polyreactivity”.

With “QVQLVESGGGLVQAGGSLRLSCAASGSISSKNAMGWYRQAPGKEREFVAVISGTGGSTYYADSVKGRFTISRDNAKNTVYLQMNSLKPEDTAFYYCAAAASSIVSYGYTWTYGYWGQGTQVTVSS”, the “polyreactivity (PSR sort gate)” value is “low polyreactivity”.

With “QVQLVESGGGLVQAGGSLRLSCAASGSISSSYAMGWYRQAPGKERELVAAIDGSDGTTYYADSVKGRYTISRDNAKNTVYLQMNSLKPEDTAFYYCAAEPLGYHAGATRYDYWGQGTQVTVSS”, the “polyreactivity (PSR sort gate)” value is reported as “high polyreactivity”.

As to “QVQLVESGGGLVQAGGSLRLSCAASGSISSVNAMGWYREAPGKERELVATISSGGSTYADSVKGRFTISRDNAKNTVYLQMNSLKPEDTAVYYCATYFVAYTFYYRWYRSYASFYYWGQGTQVTVSS”, the “polyreactivity (PSR sort gate)” value is given as “low polyreactivity”.

On to “QVQLVESGGGLVQAGGSLRLSCAASGSISSYYAMGWYRQATGKERELVAAISKSGGSTYYADSVKGRFTISRDNAKNTVYLQMNSLKPEDSAVYYCAARDYGWRYYRKYDYWGQGTQVTVSS”, for which the “polyreactivity (PSR sort gate)” value is “high polyreactivity”.
